Results on ten molecules are retold here after patent publication US20260234242A1 (HAINAN SIMCERE ZAIMING PHARMACEUTICAL, published 2026).

Experiment [1] concerns the target T1, his-tagged human CDH6 extracellular region protein (hCDH6 ECD-his) (human, UniProt P55285 19-615).
T1 construct: also called Human CDH6-his; hCDH6-his; not shown: his tag
T1 sequence: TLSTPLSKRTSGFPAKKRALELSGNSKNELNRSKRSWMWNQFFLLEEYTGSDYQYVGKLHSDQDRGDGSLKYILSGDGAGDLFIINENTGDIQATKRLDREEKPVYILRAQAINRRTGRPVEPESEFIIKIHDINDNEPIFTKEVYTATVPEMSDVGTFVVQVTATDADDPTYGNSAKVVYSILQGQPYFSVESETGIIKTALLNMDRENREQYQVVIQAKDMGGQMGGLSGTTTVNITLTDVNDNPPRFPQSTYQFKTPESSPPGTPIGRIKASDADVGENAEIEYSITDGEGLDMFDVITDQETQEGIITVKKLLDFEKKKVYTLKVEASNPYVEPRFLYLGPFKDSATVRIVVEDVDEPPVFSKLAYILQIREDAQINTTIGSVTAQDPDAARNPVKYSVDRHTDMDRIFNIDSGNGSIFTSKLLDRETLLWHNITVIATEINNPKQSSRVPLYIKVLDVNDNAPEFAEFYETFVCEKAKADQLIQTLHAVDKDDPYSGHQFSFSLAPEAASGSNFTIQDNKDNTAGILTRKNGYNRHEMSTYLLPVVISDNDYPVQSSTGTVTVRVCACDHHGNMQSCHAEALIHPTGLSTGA
As to the kind of experiment: SPR Biacore 8K, antibody captured on Protein A. The method, then: The affinity of the antibody for the antigen was determined by a multi-cycle kinetic method using a BIAcore 8K instrument. In each cycle, the antibody to be tested was captured using a Protein A chip (purchased from GE, Cat. No. 29-1275-56), and then the antigen human CDH6 protein (hCDH6-his, conventionally synthesized) was injected. The association and dissociation processes of the antibody with the antigen protein were recorded, and finally, the chip was regenerated using Glycine pH 1.5, wherein the mobile phase was HBS-EP+ (10 mM HEPES, 150 mM NaCl, 3 mM EDTA, 0.05% surfactant P20, and 1 mM Ca), the flow rate was 30 μL/min, the association time was 240 s, the dissociation time was 300 s, the regeneration time was 30 s, the detection temperature was 25° C., and the antigen concentration was 31.25-1000 nM. The data were analyzed using Biacore 8K analysis software (version No. 2.0) based on the 1:1 binding model to fit the antibody-antigen binding kinetic parameters, including the association rate constant ka, the dissociation rate constant kd, and the equilibrium dissociation constant KD. The affinity values of the control antibody DS-H01L02 were undetectable. Antibodies not shown in the table had undetectable affinity values.

In experiment [2] the target is T2, human CDH6 with EC5 removed, on HEK293T cells (HEK293T-hCDH6-EC5 deletion) (human, UniProt P55285 54-790).
T2 construct: Signal peptide not removed here
T2 sequence: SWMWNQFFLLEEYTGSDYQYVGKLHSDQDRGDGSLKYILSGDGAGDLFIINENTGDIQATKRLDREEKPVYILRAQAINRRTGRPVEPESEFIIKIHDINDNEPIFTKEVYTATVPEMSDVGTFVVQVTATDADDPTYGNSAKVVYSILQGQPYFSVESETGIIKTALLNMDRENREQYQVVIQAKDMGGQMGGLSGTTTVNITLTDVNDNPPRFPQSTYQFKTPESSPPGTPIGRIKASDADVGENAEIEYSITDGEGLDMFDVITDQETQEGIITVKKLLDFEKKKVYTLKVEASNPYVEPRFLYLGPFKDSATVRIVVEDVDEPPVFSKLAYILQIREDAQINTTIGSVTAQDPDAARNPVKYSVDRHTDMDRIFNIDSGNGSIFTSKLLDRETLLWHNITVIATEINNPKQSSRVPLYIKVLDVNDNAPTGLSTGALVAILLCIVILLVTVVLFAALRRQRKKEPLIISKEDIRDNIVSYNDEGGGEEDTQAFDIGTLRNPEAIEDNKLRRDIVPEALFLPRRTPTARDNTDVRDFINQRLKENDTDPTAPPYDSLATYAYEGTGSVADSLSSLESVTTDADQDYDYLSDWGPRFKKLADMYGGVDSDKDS
As to the kind of experiment: FACS, HEK293T-hCDH6-EC5 deletion cells. An excerpt: To confirm the binding epitope of the CDH6 antibody, the sequences after removal of these 5 regions were constructed into pcDNA3.1 vectors (purchased from Youbio, Cat. No. VT1001), and transfected into HEK293T cells (purchased from Cell Bank of Chinese Academy of Sciences, Cat. No. SCSP-502) to obtain 5 CDH6 truncated cell lines: HEK293T-hCDH6-EC1 deletion, HEK293T-hCDH6-EC2 deletion, HEK293T-hCDH6-EC3 deletion, HEK293T-hCDH6-EC4 deletion, and HEK293T-hCDH6-EC5 deletion.
The binding activity of the CDH6 chimeric antibodies to these 5 cell lines was assayed by FACS.
For orientation: Flow cytometry measures light scatter and fluorescence of single cells or particles in a stream.

B1: CHI-CDH6-9 (antibody, human IgG1, kappa, V domains shown)
VH: QVQLQQPGAELVKPGASVKLSCKASGYTFTGYWMHWVRQRPGQGLEWIGEINPNNGGTNCNEQFKNKATLTVDKSSSTAYMQLSSLTSEDSAVFYCTISFGNYLFFDVWGAGTTVTVSS
VL: DIQMTQSPASLAASVGETITITCQASENIYFSLAWYQQKQGKSPQLLIYNANTLEDGVPSRFVGSGSGTQYSMKINSIQPEDTATYFCDQTYDFPWTFGGGTKLEIKR
notes: also called chimeric antibody of murine CDH6-9
One may read the Kd as the equilibrium constant for the complex coming apart. High values mean lower affinity, low ones higher affinity. As a reminder, the koff is the rate constant with which the complex falls apart. A low value points to slow dissociation. Usually kon stands for the rate constant with which the complex forms. Lower therefore signals slower complex formation. In experiment [1], B1 showed a Kd of 138 nM, a koff of 0.00159 s⁻¹ and a kon of 11600 M⁻¹ s⁻¹.

B2: NOV0712 (antibody, human IgG1, kappa, V domains shown)
VH: QVQLLESGGGLVQPGGSLRLSCAASGFTFSSHGMHWVRQAPGKGLEWVSVISGSGSNTGYADSVKGRFTISRDNSKNTLYLQMNSLRAEDTAVYYCARQWGSYAFDSWGQGTLVTVSS
VL: DIQMTQSPSSLSASVGDRVTITCRASQSISSYLNWYQQKPGKAPKLLIYAVSTLQSGVPSRFSGSGSGTDFTLTISSLQPEDFATYYCQQSGTFPPTTFGQGTKVEIKR
notes: Positive control, variable regions from WO2018212136A1; also called positive control anti-human CDH6 antibody
B2: the binding result in experiment [2] is “no binding (tested: MFI ~1.5 times that of hIgG1 (81))”. In experiment [1], this molecule gave a Kd of 53.5 nM, a koff of 0.00267 s⁻¹ and an on-rate constant (kon) of 49900 M⁻¹ s⁻¹.

B3: CHI-CDH6-1 (antibody, human IgG1, kappa, V domains shown)
VH: QVQLQQPGAELVRPGSSVKLSCKASGYTFTNYWMHWVKQRPIEGLEWIGDIDPSHSETHYTQKFKDKATLTVDKSSSTAYMQLSSLTSEDSAVYYCARGDLGRFDYWGQGTTLTVSS
VL: DIVLTQSPASLAVSLGQRATISCRASESVSIHGTHLMHWYQQKSGQPPKLLIYAASNLESGVPARFSGSGSETDFTFNIHPVEEEDAATYFCQQSFEDPWTFGGGTKLEIKR
notes: also called CHI-hCDH6-1; CH1-CDH6-1
For the molecule B3, the “Max MFI” value in experiment [2] was determined as 14300 MFI. Further, in experiment [1], the affinity, expressed as Kd, was 8.87 nM; the off-rate (koff) worked out at 0.00585 s⁻¹; the kon worked out at 659000 M⁻¹ s⁻¹.

B4: CHI-CDH6-10 (antibody, human IgG1, kappa, V domains shown)
VH: QVQLQQPGAELVKPGTSVKMSCKASGYTFTSDWIAWVKQRPGQGLEWIGDIYPGSGRTHNNEKFNFKATLTVDTSSNTAYMQLSSLTSEDSAVYFCARPMLGRFDYWGQGTTLTVSS
VL: DIVLTQSPASLAVSLGQRATISCRASESVSIHGTHLMHWYQQKPGQPPKLLIYAASNLESGVPARFSGSGSETDFTLNIHPVEEEDAATYFCQQSFEDPFTFGSGTKLEIKR
notes: also called chimeric antibody of murine CDH6-10
In experiment [1], B4 displayed a dissociation constant Kd of 20.3 nM, a dissociation rate constant (koff) of 0.00364 s⁻¹ and a kon of 179000 M⁻¹ s⁻¹.

B5: CHI-CDH6-11 (antibody, human IgG1, kappa, V domains shown)
VH: QIQLQQSGPELVKPGASVRISCKASGYTFTDYYITWVKLRPGQGLEWIGWIYPGSVNIKYNEKFKGKATLTVDTSSSTAYMQLNSLTSEDSAVYFCARGGYSWFPYWGQGTLVTVSA
VL: NIVMTQSPKSMSMSVGERVTLSCKASENVHTYVSWYQQKPEQSPKLLFYGASTRNTGVPDRFTGSGSATDFTLTISSVQAEDLADYYCGQSYSYPYTFGSGTKLEIKR
notes: also called chimeric antibody of murine CDH6-11
In experiment [1], B5 came in with an equilibrium dissociation constant (Kd) of 5.72 nM, a koff of 0.000201 s⁻¹ and an on-rate constant (kon) of 35200 M⁻¹ s⁻¹.

B6: CHI-CDH6-6 (antibody, human IgG1, kappa, V domains shown)
VH: EVQLQQSGPELVKPGDSVKMSCKASGYTFTDYYMAWVRQSHRKSLEWIGYIFPNSGGTDYSQKFKGKATLTVDKSSSTVYMELHSLTSEDSAVYYCARELGADYGDYYAMDHWGQGTSVSVSS
VL: DIQMTQSPASLSASVGETVTITCRASENIDSYLAWYQQKQGKSPQLLVYSATLLADGVPSRFSGSGSGTQYSLKINSLKSEDVARYYCQHYYRTPPTFGSGTKLEIKR
notes: also called CHI-hCDH6-6; chimeric antibody of murine CDH6-6
For B6, in experiment [1], binding was characterised by a dissociation constant (Kd) of 58.6 nM, the koff was found to be 0.00508 s⁻¹ and the kon came to 86800 M⁻¹ s⁻¹.

B7: CHI-CDH6-8 (antibody, human IgG1, kappa, V domains shown)
VH: EVQLQQSGPELVKPGDSVKMSCKASGYTFTDYYMAWIKQNHGKSLEWIGYIYPNNGGTDYNQKFRGKATLTVDKSSSAAYMELHSLTSEDSAVYYCAREIGTLYGDYYAMDYWGQGTSVTVSS
VL: DIQMTQSPASLSASVGETVTITCRASENIDSYLAWYQQKQGKSPQLLVYTATLLADGVPSRFSGSGSGTQYSLKINSLQSEDVARYYCQHYYSTPPTFGSGTKLEIKR
notes: also called chimeric antibody of murine CDH6-8
As to B7, in experiment [1], the Kd came to 31.2 nM, the off-rate constant (koff) was 0.00378 s⁻¹ and the kon was 121000 M⁻¹ s⁻¹.

B8: CHI-CDH6-14 (antibody, human IgG1, kappa, V domains shown)
VH: QIQLQQSGPELVKPGTSVKISCKASGYTFTDNYINWVRQRPGQGLEWIGWIYPGTGNSYYNEKFKGKATLTVDTSSSTAYMQFSSLTSEDSAVYLCASSYGDSFDYWGQGTTLTVSS
VL: DIQMTQTTSSLSASLGNRVTISCRASQDIRNYLNWYQQKPDGTFKLLISYTSRLHSGVPSRFSGSGSGTDYSLTVSNLEPEDIATYYCQQYSQLPWTFGGGSRLEIKR
notes: also called CHI-hCDH6-14; CH1-CDH6-14
For B8, the “Max MFI” value in experiment [2] was 4040 MFI.

B9: CHI-CDH6-2 (antibody, human IgG1, kappa, V domains shown)
VH: EVQLQQSGPELVKPGASVRISCKASGYTFTDYYMNWVKQSHGKSLEWIGDIDPNNANTTYNQKFKGKATLTVDKSSSTAYMELRSLTSEDSAVYSCASFGYDVEWFGYWGQGTLVTVSA
VL: QIVLTQSPALMSASPGEKVTMTCSASSSVSYMYWYQQKPRSSPKPWIYLTSNLASGVPARFSGSGSGTSYSLTISSMEAEDAATYYCQQWSSNPFTFGSGTKLEIKR
notes: also called chimeric antibody of murine CDH6-2
For B9, in experiment [1], the dissociation constant (Kd) was 3.68 nM, the koff worked out at 0.00185 s⁻¹ and the kon came out at 503000 M⁻¹ s⁻¹.

B10: CHI-CDH6-13 (antibody, human IgG1, kappa, V domains shown)
VH: DVQLQESGPGLVKPSQSLSLTCSVTGYSITKDSYWNWIRQFPGSKLEWMGFISYDGSRHYNPSLKNRISITRDTSKNQFFLQLNSVTTEDTATYYCARRDYADYWGQGTTLTVSS
VL: QIVLTQSPALMSAFPGEKVTMTCSATSSVSYIYWYQQKPRSSPKPWIYLTSNLASGVPARFSGSGSGTSYSLTINSLEAEDAATYYCQQWSSIPYTFGGGTKLEIKR
notes: also called chimeric antibody of murine CDH6-13
As for B10, in experiment [1], the Kd was 78.1 nM, the dissociation rate constant (koff) came out at 0.00184 s⁻¹ and the kon worked out at 23600 M⁻¹ s⁻¹.
